Experimental data published in patent US20240344241A1, “PROTEINACEOUS MOLECULES AND USES THEREFOR” (THE UNIVERSITY OF QUEENSLAND, priority 2021, published 2024).
Substitutions are numbered along the chain they refer to. In names and notes the source's numbering stands. Ends that are not written are not given here.

T1: human β-factor XIIa (human), P00748
T1 chain 1: NGPLSCGQR
T1 chain 2: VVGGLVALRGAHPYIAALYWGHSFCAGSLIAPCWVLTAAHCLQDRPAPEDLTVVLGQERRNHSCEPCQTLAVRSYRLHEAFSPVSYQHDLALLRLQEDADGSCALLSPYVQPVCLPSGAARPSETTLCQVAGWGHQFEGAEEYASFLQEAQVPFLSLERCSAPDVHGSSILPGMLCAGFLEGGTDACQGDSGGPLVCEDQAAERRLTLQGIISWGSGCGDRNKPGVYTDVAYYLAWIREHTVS

T2: FXIIa in human plasma (generated by kaolin activation of FXII in aPTT assays) (human), P00748
T2 chain: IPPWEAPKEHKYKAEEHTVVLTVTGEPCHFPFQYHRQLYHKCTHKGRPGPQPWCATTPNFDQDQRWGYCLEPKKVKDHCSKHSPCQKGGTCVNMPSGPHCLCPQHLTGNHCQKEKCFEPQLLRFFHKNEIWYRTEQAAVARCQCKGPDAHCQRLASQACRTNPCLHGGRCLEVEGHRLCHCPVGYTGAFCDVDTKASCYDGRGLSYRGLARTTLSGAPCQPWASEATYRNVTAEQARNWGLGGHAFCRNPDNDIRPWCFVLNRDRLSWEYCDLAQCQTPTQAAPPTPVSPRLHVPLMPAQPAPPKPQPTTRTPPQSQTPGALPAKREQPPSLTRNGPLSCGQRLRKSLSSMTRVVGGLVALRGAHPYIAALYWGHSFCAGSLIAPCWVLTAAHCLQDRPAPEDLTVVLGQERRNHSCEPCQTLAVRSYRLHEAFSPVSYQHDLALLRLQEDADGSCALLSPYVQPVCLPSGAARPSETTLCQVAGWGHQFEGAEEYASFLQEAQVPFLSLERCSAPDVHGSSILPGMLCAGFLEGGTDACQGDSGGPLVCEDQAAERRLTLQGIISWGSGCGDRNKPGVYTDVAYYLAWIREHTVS

T3: recombinant human matriptase (human), Q9Y5Y6
T3 chain: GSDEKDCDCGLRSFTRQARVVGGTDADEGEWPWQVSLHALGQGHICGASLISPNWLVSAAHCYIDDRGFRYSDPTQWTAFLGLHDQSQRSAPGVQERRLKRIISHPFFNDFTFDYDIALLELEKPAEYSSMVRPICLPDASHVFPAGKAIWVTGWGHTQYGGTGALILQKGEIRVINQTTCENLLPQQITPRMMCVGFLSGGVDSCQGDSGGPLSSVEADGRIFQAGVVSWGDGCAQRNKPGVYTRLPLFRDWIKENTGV

T4: kallikrein-related peptidase 4 (KLK4), Q9Y5K2
T4 chain: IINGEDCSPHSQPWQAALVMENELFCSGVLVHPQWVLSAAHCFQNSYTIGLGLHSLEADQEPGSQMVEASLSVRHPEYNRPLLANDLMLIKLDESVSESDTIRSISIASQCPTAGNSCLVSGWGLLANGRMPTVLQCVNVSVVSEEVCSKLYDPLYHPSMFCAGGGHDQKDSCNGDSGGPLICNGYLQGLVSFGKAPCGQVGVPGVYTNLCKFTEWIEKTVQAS

B1: MCoFx4 acyclic (peptide)
peptide: DGGVCPRVGWRCRRDSDCPGACICYPTKWCGSGS
modifications: not checked
B2: MCoFx4 cyclic (peptide)
peptide: B1 peptide
modifications: not checked
B3: MCoFx5 acyclic (peptide)
peptide: DGGRCCGGYLVCRRDSDCPGACICVFKKHCGSGS
modifications: not checked
B4: MCoFx5 cyclic (peptide)
peptide: B3 peptide
modifications: not checked
B5: MCoFx3 acyclic (peptide)
peptide: DGGRCPRLLRWCRRDSDCPGACICARGGLCGSGS
modifications: not checked
B6: MCoFx3 cyclic (peptide)
peptide: B5 peptide
modifications: not checked
B7: MCoFx1 cyclic (peptide)
peptide: DGGICPRIGRLCRRDSDCPGACICRATRFCGSGY
modifications: not checked
B8: MCoFx1 acyclic (peptide)
peptide: B7 peptide
modifications: not checked
B9: cMCoTI-fxL1 (peptide)
peptide: DGGICPRIGRLCRRDSDCPGACICRGNGYCGSGS
modifications: not checked
B10: MCoFx2 acyclic (peptide)
peptide: DGGICPRILVYCRRDSDCPGACICIRRTYCGSGS
modifications: not checked
B11: MCoFx2 cyclic (peptide)
peptide: B10 peptide
modifications: not checked
B12: MCoTI-II (Momordica cochinchinensis trypsin inhibitor-II), chemically synthesized, cyclic (peptide)
peptide: DGGVCPKILKKCRRDSDCPGACICRGNGYCGSGS
modifications: not checked
B13: acyclic variant of MCoFx1 based on a minimized knottin scaffold (29 amino acids) (peptide)
peptide: RICPRIGRLCRRDSDCPGACICRATRFCG
modifications: not checked
B14: MCoFx1, mRNA display selected sequence (parent of the saturation mutagenesis library) (peptide)
peptide: MDGGICPRIGRLCRRDSDCPGACICRATRFCGSGSGS
modifications: not checked
B15: acyclic MCoTI-II variant M (peptide)
peptide: RVCPRILKKCRRDSDCPGACICRGNGYCG
modifications: not checked
B16: Cyclic [R27G]MCoFx7 (peptide)
peptide: GGICPRIGRLCRRDSDCPGACICRATGFCGSGSD
modifications: not fully specified (bridges); cysteine pairing not given here
B17: Cyclic [R12E]MCoFx7 (peptide)
peptide: B16 peptide with R12E, G27R
modifications: not fully specified (bridges); cysteine pairing not given here
B18: Cyclic [R27H]MCoFx7 (peptide)
peptide: B16 peptide with G27H
modifications: not fully specified (bridges); cysteine pairing not given here
B19: Cyclic [R12T]MCoFx7 (peptide)
peptide: B16 peptide with R12T, G27R
modifications: not fully specified (bridges); cysteine pairing not given here
B20: Cyclic [R13K]MCoFx7 (peptide)
peptide: B16 peptide with R13K, G27R
modifications: not fully specified (bridges); cysteine pairing not given here
B21: Cyclic MCoFx7 (peptide)
peptide: B16 peptide with G27R
modifications: not checked
B22: Cyclic [R12V]MCoFx7 (peptide)
peptide: B16 peptide with R12V, G27R
modifications: not fully specified (bridges); cysteine pairing not given here
B23: Cyclic [A25K]MCoFx7 (peptide)
peptide: B16 peptide with A25K, G27R
modifications: not fully specified (bridges); cysteine pairing not given here
B24: Cyclic [A25P]MCoFx7 (peptide)
peptide: B16 peptide with A25P, G27R
modifications: not fully specified (bridges); cysteine pairing not given here
B25: Cyclic [D34P]MCoFx7 (peptide)
peptide: B16 peptide with G27R, D34P
modifications: not fully specified (bridges); cysteine pairing not given here

Biological target: T1, human β-factor XIIa (human), P00748
Assay: competitive protease inhibition assay, Ac-QRFR-pNA substrate, Morrison Ki

Row | Binder | Ki
1 | B1 | 17 nM
2 | B2 | 5.5 nM
3 | B3 | 106 nM
4 | B4 | 207 nM
5 | B5 | 525 nM
6 | B6 | 75 nM
7 | B7 | 0.37 nM
8 | B8 | 0.73 nM
9 | B9 | 0.69 nM
10 | B10 | 73 nM
11 | B11 | 12 nM

Biological target: T1, human β-factor XIIa (human), P00748
Assay: SPR (Biacore T200), biotinylated human β-FXIIa captured on chip, peptide as analyte, 1:1 model

Row | Binder | Kd
12 | B1 | 74 nM
13 | B2 | 14 nM
14 | B3 | 23 nM
15 | B4 | 82 nM
16 | B5 | 167 nM
17 | B6 | 23 nM
18 | B8 | 1.9 nM
19 | B12 | 58 nM
20 | B10 | 45 nM

Biological target: T1, human β-factor XIIa (human), P00748
Assay: as above
Remark: another data set of the same source

Row | Binder | Kd
21 | B1 | 73.8 nM
22 | B2 | 14.4 nM
23 | B4 | 81.8 nM
24 | B6 | 22.8 nM
25 | B7 | 0.9 nM
26 | B8 | 1.89 nM
27 | B10 | 45.4 nM
28 | B11 | 10 nM

Biological target: T1, human β-factor XIIa (human), P00748
Assay: competitive protease inhibition assay

Row | Binder | Ki
29 | B13 | 1.4 nM

Biological target: T2, FXIIa in human plasma (generated by …)
Assay: cell-based or functional assay

Row | Binder | EC2× (inhibitor concentration that doubles the clotting time), aPTT assay in human plasma
30 | B7 | 702 nM
31 | B9 | 500 nM

Biological target: T1, human β-factor XIIa (human), P00748
Assay: SPR, ratio of KD values

Row | Binder | fold higher affinity than MCoTI-II
32 | B7 | 60 fold

Biological target: bovine trypsin (bovine), P00760
Assay: SPR, ratio of KD values

bovine trypsin (bovine), P00760, sequence (P00760 24-246): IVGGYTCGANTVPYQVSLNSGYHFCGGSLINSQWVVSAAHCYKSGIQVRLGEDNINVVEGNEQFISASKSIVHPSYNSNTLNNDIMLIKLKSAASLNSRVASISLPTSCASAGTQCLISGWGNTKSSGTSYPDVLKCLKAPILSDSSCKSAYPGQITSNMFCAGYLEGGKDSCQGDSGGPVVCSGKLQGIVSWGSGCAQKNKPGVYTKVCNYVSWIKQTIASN

Row | Binder | fold lower affinity than MCoTI-II
33 | B7 | 300 fold

Biological target: bovine trypsin (bovine), P00760
Assay: SPR, bovine trypsin

Row | Binder | Kd
34 | B1 | 15.1 nM
35 | B2 | 4.09 nM
36 | B5 | 2.39 nM
37 | B6 | 2.72 nM
38 | B7 | 31.5 nM
39 | B8 | 59.6 nM
40 | B12 | < 0.1 nM
41 | B10 | < 0.1 nM
42 | B11 | < 0.1 nM

Biological target: T3, recombinant human matriptase (human), …
Assay: competitive protease inhibition assay (selectivity panel), human matriptase, Boc-QAR-MCA

Row | Binder | Ki
43 | B7 | 9120 nM
44 | B9 | 2210 nM

Biological target: T1, human β-factor XIIa (human), P00748
Assay: mRNA display affinity selection on bead-immobilised biotinylated human β-FXIIa, NGS; share of the sequence in the recovered library

Row | Binder | Population (%)
45 | B14 | 20.7%

Biological target: human cationic trypsin (human), P07477
Assay: competitive protease inhibition assay (selectivity panel), human trypsin, Boc-VPR-MCA

Row | Binder | Ki
46 | B7 | 1110 nM
47 | B9 | 996 nM

Biological target: human cationic trypsin (human), P07477
Assay: competitive inhibition assay with peptide substrate

Row | Binder | Ki
48 | B15 | 0.4 nM

Biological target: T3, recombinant human matriptase (human), …
Assay: as above

Row | Binder | Ki
49 | B15 | 0.4 nM

Biological target: T1, human β-factor XIIa (human), P00748
Assay: as above

Row | Binder | Ki
50 | B15 | 3.3 nM

Biological target: T4, kallikrein-related peptidase 4 (KLK4), …
Assay: as above

Row | Binder | Ki
51 | B15 | 0.07 nM

Biological target: T1, human β-factor XIIa (human), P00748
Assay: mRNA display affinity selection on bead-immobilised biotinylated human β-FXIIa, NGS; share of the sequence in the recovered library; peptide displayed as acyclic mRNA fusion

Row | Binder | Population (%)
52 | B1 | 2.3%
53 | B3 | 0.8%
54 | B5 | 2.3%
55 | B10 | 19.8%

Biological target: T1, human β-factor XIIa (human), P00748
Assay: competitive protease inhibition assay, ratio of Ki values

Row | Binder | fold loss in activity against cyclic MCoFx7 | fold weaker activity than cyclic MCoFx7 | fold more potent than MCoTI-II
56 | B16 | 3.2 fold | – | –
57 | B17 | – | 2 fold | –
58 | B18 | 2 fold | – | –
59 | B7 | – | – | 350 fold

Biological target: T1, human β-factor XIIa (human), P00748
Assay: competitive protease inhibition assay, 0.5 nM FXIIa, Boc-QGR-MCA substrate

Row | Binder | Ki
60 | B16 | 0.21 nM
61 | B19 | 0.065 nM
62 | B17 | 0.13 nM
63 | B20 | 0.068 nM
64 | B21 | 0.064 nM
65 | B22 | 0.069 nM
66 | B18 | 0.12 nM
67 | B23 | 0.046 nM
68 | B24 | 0.093 nM
69 | B25 | 0.091 nM
